From paper PMC4031048, “Six Homeoproteins and a linc-RNA at the Fast MYH Locus Lock Fast Myofiber Terminal Phenotype” come the findings set out here.

To fix the notation:
T1: Six1 (Mus musculus, UniProt Q62231 1-284)
T1 sequence: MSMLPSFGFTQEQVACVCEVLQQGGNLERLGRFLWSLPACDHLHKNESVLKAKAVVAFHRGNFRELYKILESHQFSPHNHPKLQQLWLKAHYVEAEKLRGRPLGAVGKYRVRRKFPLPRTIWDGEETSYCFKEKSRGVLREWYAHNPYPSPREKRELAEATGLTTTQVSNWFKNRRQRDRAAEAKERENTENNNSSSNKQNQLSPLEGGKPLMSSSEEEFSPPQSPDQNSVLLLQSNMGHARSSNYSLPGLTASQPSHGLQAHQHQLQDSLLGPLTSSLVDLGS

B1: Enh1 (dsDNA)
DNA 1: CTCTTGGGTAACTGGAGCCCCTC
DNA 2: GAGGGGCTCCAGTTACCCAAGAG
B2: Enh6 (dsDNA)
DNA 1: CGTCAAGGAAACCTTATTCCATC
DNA 2: GATGGAATAAGGTTTCCTTGACG
B3: Enh3 (dsDNA)
DNA 1: TGTAAGAGAAACTGAAATAAAAT
DNA 2: ATTTTATTTCAGTTTCTCTTACA
B4: Enh2 (dsDNA)
DNA 1: TCATAAGGAAATCTAAGTCAACC
DNA 2: GGTTGACTTAGATTTCCTTATGA
B5: Enh4 (dsDNA)
DNA 1: GGGGTAAGAAATCTGACGACAGG
DNA 2: CCTGTCGTCAGATTTCTTACCCC

This data set has as its target T1, Six1. Briefly: competition EMSA; 10x and 100x vs labeled Myogenin MEF3; EMSA as previously described (ref 38); buffer, salt, pH and temperature not given. To be noted: protein: ivt; blunt.
In the case of B1, the binding result is recorded as “binds”. As for B2, the binding result is “binds”. B3: the binding result is on record as “binds”. Turning to B4, the binding result was “binds”. With B5 the entry was “binds”.
